The target in experiment [1] is T1, recombinant human VEGF165 (human, UniProt P15692-4 27-191, biotinylated in the competition assays).
T1 construct: also called hVEGF165; rhVEGF165
Briefly: SPR (Biacore), periplasmic extract over immobilised VEGF165, two phase decay fit. On the procedure: Dissociation rates of receptor-blocking VHHs are analyzed on Biacore (Biacore T100 instrument, GE Healthcare). HBS-EP+buffer is used as running buffer and experiments are performed at 25° C. […] After immobilization, surfaces are deactivated with 10 min injection of 1M ethanolamine pH8.5. […] Periplasmic extracts of VHHs are injected at a 10-fold dilution in running buffer for 2 min at 45 μl/min and allowed to dissociate for 10 or 15 min. Between different samples, the surfaces are regenerated with regeneration buffer. Data are double referenced by subtraction of the curves on the reference channel and of a blank running buffer injection. The dissociation phase of the processed curves is evaluated by fitting a two phase decay model in the Biacore T100 Evaluation software v2.0.1.
In general terms: Surface plasmon resonance follows binding to a sensor surface in real time, without labels.

Experiment [2] concerns the target T2, recombinant mouse VEGF164 (R&D Systems) (mouse, UniProt Q00731-2 27-190).
T2 construct: also called rmVEGF164; mVEGF164
T2 sequence (looked up): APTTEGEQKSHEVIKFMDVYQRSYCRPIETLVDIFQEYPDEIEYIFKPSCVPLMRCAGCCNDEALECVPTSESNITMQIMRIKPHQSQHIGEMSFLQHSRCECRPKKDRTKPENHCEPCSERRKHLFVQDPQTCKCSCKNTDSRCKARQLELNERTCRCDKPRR
Briefly: binding ELISA, coated rmVEGF164. On the procedure: Cross-reactivity to mouse VEGF164 is determined using a binding ELISA. […] Wells are blocked with a casein solution (1% in PBS). […] A mouse VEGF164 reactive mAb is included as positive control.
On the technique in general: In an ELISA, binding on a coated surface is turned into a signal by an enzyme label.

The target of experiment [3] is T1, recombinant human VEGF165. As to the kind of experiment: SPR (Biacore), immobilised VEGF165, Two State Reaction model. On the procedure: (§1) Samples are injected for 2 min and allowed to dissociate up to 20 min at a flow rate of 45 μl/min. In between sample injections, the chip surface is regenerated with 100 mM HCl. HBS-EP+(Hepes buffer pH7.4+EDTA) is used as running buffer. Binding curves are fitted using a Two State Reaction model by Biacore T100 Evaluation Software v2.0.1.
^{(a)}Heterogeneous binding curve resulting in no 1:1 fit, curves are fitted using a Two State Reaction model by Biacore T100 Evaluation Software v2.0.1

In experiment [4] the target is T1, recombinant human VEGF165. As to the kind of experiment: competition ELISA, biotinylated VEGF165 to coated VEGFR1-Fc.
The target of experiment [5] is T1, recombinant human VEGF165. As to the kind of experiment: binding ELISA, coated rhVEGF165.
Experiment [6] has as its target T1, recombinant human VEGF165. Briefly: competition AlphaScreen, bio-VEGF165 and VEGFR1-Fc. On the procedure: (§2) Finally, streptavidin donor beads (20 μg/ml) are added and after 1 hour of incubation in the dark, fluorescence is measured on the Envision microplate reader.
For orientation: Alpha assays give light when donor and acceptor beads are brought close together.

Experiment [7] deals with T1, recombinant human VEGF165. As to the kind of experiment: competition AlphaScreen, bio-VEGF165 and VEGFR2-Fc. On the procedure:
as §2

For experiment [8], the target named is T3, recombinant human VEGF121 (R&D Systems) (human, UniProt P15692-9 27-147).
T3 construct: also called rhVEGF121
T3 sequence (looked up): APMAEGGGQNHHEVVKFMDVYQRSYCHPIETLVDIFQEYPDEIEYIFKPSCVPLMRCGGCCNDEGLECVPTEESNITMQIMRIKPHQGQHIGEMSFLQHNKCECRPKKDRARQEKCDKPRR
As to the kind of experiment: binding ELISA, coated recombinant human VEGF121. On the procedure: Binding to recombinant human VEGF121 is assessed via a solid phase binding ELISA. […] Wells are blocked with a casein solution (1% in PBS).

In experiment [9] the target is T1, recombinant human VEGF165. Briefly: competition ELISA, biotinylated VEGF165 to coated VEGFR2-Fc.
In another experiment the target is T4, PIGF (UniProt P49763-2 21-149, limits assumed).
T4 construct: also called placenta growth factor
T4 sequence (looked up): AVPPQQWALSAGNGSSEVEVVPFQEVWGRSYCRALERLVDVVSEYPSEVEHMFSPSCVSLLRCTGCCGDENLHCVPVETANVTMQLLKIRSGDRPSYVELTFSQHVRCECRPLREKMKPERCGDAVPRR
Briefly: solid phase binding ELISA, 500 nM-32 pM VHH. On the procedure: (§3) Binding to VEGFB, VEGFC, VEGFD and PIGF is assessed via a solid phase binding ELISA. […] Wells are blocked with a casein solution (1% in PBS). […] As positive controls serial dilutions of the appropriate receptors are taken along and detected with horseradish peroxidase (HRP)-conjugated goat anti-human IgG, Fc specific antibody (Jackson Immuno Research Laboratories Inc., West Grove, Pa., USA) and a subsequent enzymatic reaction in the presence of the substrate TMB (3,3′,5,5′-tetramentylbenzidine) (Pierce, Rockford, Ill., USA).

For a further experiment, the target named is T5, VEGFB (UniProt P49765-2 22-188, limits assumed).
T5 sequence (looked up): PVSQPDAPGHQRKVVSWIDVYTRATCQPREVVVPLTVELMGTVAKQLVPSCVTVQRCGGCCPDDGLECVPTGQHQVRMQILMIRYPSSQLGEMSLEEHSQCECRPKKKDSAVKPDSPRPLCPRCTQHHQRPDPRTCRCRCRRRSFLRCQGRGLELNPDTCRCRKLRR
As to the kind of experiment: solid phase binding ELISA, 500 nM-32 pM VHH. On the procedure:
as §3

The next experiment deals with T6, VEGFD (UniProt O43915 93-201, limits assumed).
T6 sequence (looked up): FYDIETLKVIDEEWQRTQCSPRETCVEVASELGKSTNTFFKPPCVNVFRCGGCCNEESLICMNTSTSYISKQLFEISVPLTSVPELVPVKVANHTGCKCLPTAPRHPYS
Briefly: solid phase binding ELISA, 500 nM-32 pM VHH. On the procedure:
as §3

For the next experiment, the target named is T7, VEGFC (UniProt P49767 103-227, limits assumed).
T7 sequence (looked up): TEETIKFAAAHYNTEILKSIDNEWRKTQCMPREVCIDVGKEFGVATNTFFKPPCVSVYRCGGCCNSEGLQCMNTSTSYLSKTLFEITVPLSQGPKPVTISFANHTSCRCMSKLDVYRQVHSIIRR
As to the kind of experiment: solid phase binding ELISA, 500 nM-32 pM VHH. On the procedure: as §3

The target of experiment [10] is T8, recombinant human VEGF165 (human, UniProt P15692-4 27-191, biotinylated in the competition assays).
T8 construct: Bought protein; also called hVEGF165; rhVEGF165
As to the kind of experiment: SPR Biacore, hVEGF165. On the procedure: as §1

Experiment [11] has as its target T8, recombinant human VEGF165. As to the kind of experiment: ProteOn off-rate assay, periplasmic extract on coated hVEGF165. On the procedure: One additional variant is constructed in which the potential oxidation site at position M30 (CDR1 region, see FIG. 38 indicated as bold italic residue) is removed by introduction of a M30I mutation. […] Off-rates are calculated and compared to the off-rates of the parental VEGFBII5B05.

B1: VEGFBII23B04 (VHH, not shown: small tags and cut ends)
VHH: EVQLVESGGGLVQTGDSLRLSCEVSGRTFSSYSMGWFRQAQGKEREFVVAISKGGYKYDSVSLEGRFTISKDNAKNTVYLQINSLKPEDTAVYYCASSRAYGSSRLRLADTYEYWGQGTQVTVSS
notes: also called VEGFBII23B4
On to B1, for which, in [1], the “kd (fast)” value is 0.0088. Besides, in [1], the “kd (slow)” value came out at 4e-05. Moreover, the binding result in experiment [2] is recorded as “no binding (tested: dilution series 500 nM-32 pM)”. Besides, in experiment [3], the Kd came out at 0.7 nM. Further, the IC50 in experiment [4] came out at 0.5 nM; in experiment [6], 0.9 nM; in experiment [7] it was 0.16 nM; in experiment [9] it was 2.1 nM. In addition, the EC50 in experiment [5] came to 0.297 nM; in experiment [8] it was 0.51 nM.

B2: VEGFBII23B04 (VHH)
VHH: EVQLVESGGGLVQTGDSLRLSCEVSGRTFSSYSMGWFRQAQGKEREFVVAISKGGYKYDSVSLEGRFTISKDNAKNTVYLQINSLKPEDTAVYYCASSRAYGSSRLRLADTYEYWGQGTQVTVSS
notes: also called VEGFBII23B4
In the case of B2, the binding result in the experiment with PIGF, in the experiment with VEGFB, with VEGFD and with VEGFC was “no binding (tested: 500 nM)” in each case.

B3: VEGFBII5B05 (VHH)
VHH: EVQLVESGGGLVQPGGSLRLSCVASGIRFMSMAWYRQAPGKHRELVARISSGGTTAYVDSVKGRFTISRDNSKNTVYLQMNSLKAEDTAVYYCNTFSSRPNPWGAGTQVTVSS
notes: also called VEGFBII05B05; VEGFBII5B05(wt)
In the case of B3, the Kd in [10] is 32 nM. In [11], the “binding level (RU)” value turned out to be 242 RU and the koff turned out to be 0.0615 s⁻¹.

B4: VEGFBII032 (VHH)
VHH: EVQLVESGGGLVQPGGSLRLSCAASGIRFISMAWYRQAPGKQRELVARISSGGTTAYADSVKGRFTISRDNSKNTVYLQMNSLRAEDTAVYYCNTFSSRPNPWGQGTLVTVSS
notes: also called VEGFBII0032
B4: the Kd in experiment [10] worked out at 44 nM.

B5: VEGFBII23A06 (VHH, not shown: small tags and cut ends)
VHH: EVQLVESGGGLVQPGDSLKLSCAFSGRTFSSYSMGWFRQAQGKEREFVVAISSGGFIYDAVSLEGRFTISRDNTKNTVYLQTPSLKPEDTAVYYCAASRAYGSSRLRLADTYDYWGQGTQVTVSS
For B5, in experiment [1], the “kd (fast)” value is 0.017. Also, the “kd (slow)” value in [1] is 3.7e-05. In addition, the binding result in [2] is given as “no binding (tested: dilution series 500 nM-32 pM)”. In experiment [3], the Kd was 0.7 nM. Moreover, the IC50 in experiment [4] stood at 0.9 nM; in experiment [6], 0.4 nM; in experiment [7], 0.25 nM; in experiment [9], 3 nM. The concentration for a half-maximal effect (EC50) in [5] amounted to 0.531 nM; in experiment [8], 0.928 nM.

B6: VEGFBII23A06 (VHH)
VHH: EVQLVESGGGLVQPGDSLKLSCAFSGRTFSSYSMGWFRQAQGKEREFVVAISSGGFIYDAVSLEGRFTISRDNTKNTVYLQTPSLKPEDTAVYYCAASRAYGSSRLRLADTYDYWGQGTQVTVSS
For B6, the binding result with PIGF, with VEGFB, in the experiment with VEGFD and with VEGFC was “no binding (tested: 500 nM)” each time.

For orientation: Kd means the constant that tells how readily two partners part at equilibrium. Usually IC50 stands for the concentration needed to halve the response being measured. What is called EC50 is the concentration at which the effect is half-maximal. What is called koff is a measure of how fast the partners let go of each other.

Source of the values: US20140120095A1 (Boehringer Ingelheim, published 2014).
